Consider twelve sequences from the DeepSol protein solubility set.

The series is described as follows: soluble on expression in E. coli; label from the status in PepcDB or PDB records.
Turning to “MAPYKKSKQKQQKIQKERLRQQQKLDLAEGSVNIPDQDRSRSQDFSMNSTNSSALQDPLQQQPRPVETEKQQKARKERLRYQMKQLGTPCEPVTFSEEITKQLDELYESDDLPDMGLKSVWKRRLGIPMKKLNDWLKQKAFEKCHVSAQTGSCESSKSNSPSESTKSMGSAVLSSSTEPRTPEESHCAPEKSPESTENASPLSSSAEPETPEETSTSMVQIPENFKNKRLSQDLVDKLQELFQINEMPGREISEQWAQQLGISLKTLNNWMQKKRSQKLHPEQAKLKSQRWQETRRLRRAGLNQEKVEKALPYLEAAFKRCQFATQQTMAELKLNTSLQKSQIRLWFSRRRKAPDATHVPAIESDSDDLVELRALFNATEEDDDSDIEILRDTRQEQEEYRNRPEVRAMIERMFGVGGGGGSLDSGIPLQ”, the “soluble on expression in E. coli” value is listed as “not soluble”.

On to “MGSDKIHHHHHHMLSNKNKIRKLLNGIETGDPDAALVVNEQKYIQHNPHTKEGNIGLAELFKQIAKTGPRVNMIRVFEDKDFVFAHMEYHFSTLKVAFEVFRFEDGFAVEHWDNMQLMQKVNASGRSMLDGYLITEDHDLTEFNRSRVSLFANEILIKRKLDLLIDFVCDDNFIQHSPLLADGISALRSTLSATSKQKYKITYSKIHRVLAEGNFVLSVSEGLMDEKHCSFYDLYRIEKGKIVEHWDTIEPIPPRTEWKNDNGKF”, for which the “soluble on expression in E. coli” value is given as “not soluble”.

For “MSMLCSLYRITPEQVTKLKDFPDAIGELVGFTAPPPKVSFLSKLFGKPPKQLSSSGQQFEPVAESDIFELNQAWHILHFLFSGTNAESPWPGGFLISGGEEIGPDQGYGPIRLFDSELSRAVAGFLDTQSFKMLDSAYVASEIEATEIYWKVSSEHTERQRQLEELWSMVKELQTFFEHTVRAGNATLLSIY”, the “soluble on expression in E. coli” value was “not soluble”.

Regarding “MGHHHHHHSHIKPGEEVFTSYIDLLYPTEDRNDRLRDSYFFTCECQECTTKDKDKAKVEIRKLSDPPKAEAIRDMVRYARNVIEEFRRAKHYKSPSELLEICELSQEKMSSVFEDSNVYMLHMMYQAMGVCLYMQDWEGALQYGQKIIKPYSKHYPLYSLNVASMWLKLGRLYMGLEHKAAGEKALKKAIAIMEVAHGKDHPYISEIKQEIESH”, the “soluble on expression in E. coli” value is “not soluble”.

For “MSLKIRQARLEDLDRIVELEFENFSVEEAIPPSVFEAHLREIQTSFLVAEKEGRIMGYIEGPVGLHRHLQDQSFTEEIKDYSHEPGGYISVTCLSIAKEAQGLGLGQKLLTALKEVALEDERDGINLTCHDYLIAYYEKHGFVNEGQSQSTFAGETWYDMVWEMKKEGHHHHHH”, the “soluble on expression in E. coli” value is “soluble”.

“MSLQQQPPGTPKSTHGAWSVICDKPAGASEEQCALMQNVIADDRPEVGLSVVILKTADRKSRILRILAPLGVLLKDGMELYIDNNNIGRAYFTRCFSEGCYVEVDIDDELLKVLRAGKNAVFALRESVDQDRVGIPIELSGFAEGYDALPEGHHHHHH”: the “soluble on expression in E. coli” value is on record as “not soluble”.

For the sequence “MSLDTVVKVGFAAPLTGPNANYGKDLENGVKMALDDAKAQGVKINGQPVTFQLVAEDDQADPRIGVQVAQKLIDEGVSVVVGHFNSGTTIPASNLYEKAGLPDIDPAATNPTISSRGFKNMFMVISSDAQNAGTAGAYAVETTKAKRIAVIDDRTAFGQGEADEFVKAVKAHGGDIIDREYTTNQATDFKTQLTNLKAKNPDLIFVGALNPQAAGIMKQMNQLGIKAQYVGGGGVKDIDFIKLAGDVSEGAMAWEYGRPLDSTPVGAKFAERFKQKFGEDVLSYAPFGYDAAWAAIKAMQAANSTKPDDYRSKLQSISFEGITGHIEFNANGSLKNGSSTVYQVKNGQWVTVKTVSGEGHHHHHH”, the “soluble on expression in E. coli” value is on record as “soluble”.

“MGSDKIHHHHHHMATSIETSFPDAPSTTPVLEMQGITKRFHGVSALQNVNLTIYPGEVHALMGENGAGKSTLMKILAGAYIADEGEIRINGQPLKITDPATARKAGINLIYQELNVAPNLTVTENMFMGSELRRGQFLDRKAMQLEAEQVLDSLGANFTAQTIVGTLSIAEQQQVEIARALKDKSRVLVMDEPTAALSDRESDHLFEVIRKLRSDGIAIIYISHRMEEIYALADRISVLRDGQYIGSLTRSEISPQRLVQMMVGRSMQDFYEHQRQMNPGPVVLEVRNMSDARKKIEPASFELHAGEILGLAGLVGAGRTELSRLIFGADRKASGEVFLNGKKLEINTPSDAIAAGIGYVPEDRKDQGLFLEMSARKNIAINTLKQDAKGGIVNWPSVNRLSTEAVENFNIRLANLEIRALDLSGGNQQKLLLARWLAIKPRVLMLDEPTRGVDIGAKSEIYRIMSELAAQGVAILMVSSELSEIVGMSDRVLVMREGQLVGELDGSLGKEITQEKIMHYATGASEVSAL”: the “soluble on expression in E. coli” value is on record as “not soluble”.

Take “MKKEIKFSLMYRDMWQSSGKYQPRKDQLERIAPVIVEMGCFARVETNGGAFEQVNLLYGENPNKAVRAFTKPLNEAGIQTHMLDRGLNGLRMFPVPADVRRLMYKVKKAQGVDITRIFDGLNDARNIIPSIKYALEAGMIPQATLCITFSPVHTVEYYSNLADELIAAGAPEICLKDMAGIGRPHFLGQLVKSIKTKHPDVIIEYHGHSGPGFSVASMLEVCENGADIIDVAMEPISWGKVHPDVITIQQMLKDAGFKVPEINMDAYMKARSLTQEFIDDFLGYFMDPSNKETSSLLVGCGLPGGMMGSMMADLKGVHAGINMFLKGKGEPEMTIDQLLVRLFQEVEYVWPRLGYPPLVTPFSQYVKNVALMNVYNMIRGEGRWQAIDQNTWGMILGKSGRLPGKLDPEIIALAKEKGMEFSDADPQQFYPDALDEFRKEMDQNGWEYGPDDEELFELAMHDRQYRDYKSGVAKERFNADLDKAKADRMAKQGYSDEDIKKAKRAGCDPIVAPCSGRLYWEIDTEEQSIAPAIGAEYRTGQPFCYIENQFGYIEKVYCTFTGRITEVVAQGTVVKKGDEIAYLRTAEKEIMWEGANEHIVRVETMPEPRKRITKSAQKN”: the “soluble on expression in E. coli” value is listed as “not soluble”.

In the case of “MFMREIELRGHIIDSLILPKVFDKILDMGGDYKVLEFEIGKRKTDPSYAKILVIGRDERHVDEILNELRDLGAEIPEIEEVELQPAEKDMVLPEGFYSTTNHKTFIRFKGKWIEVENQKMDGAIVVYPDEMRAEVKTIRNIKKGDLVVVGHKGVRVIPPEKPREGGGLFEFMKSDASSEKPKETIIRRIAKEMYEIREKYRKTGKGGIVVVGGPAIIHTGAGWALAKLIRMGYVQALFAGNALATHDIESVLYGTSLGVDLKTGKSVPGGHSHHLRAINTIMRAGSIKDAVEQGILKEGVMYECIKNNIPYVLAGSIRDDGPLPDVITDVVKAQEKMRELLKGKDMVLMLSTMLHSIATGNLLPSWVKTICVDINPAVVTKLMDRGTSQALGIVTDVGVFLPMLVEELEKLEKEKEKSEKREELEHHHHHH”, the “soluble on expression in E. coli” value was “soluble”.

On to “YPDDLVIGNLSRRGFLKGVGATGVLLVAANWGWRDALAAEKKAFGADAMPHGWVDNPKIYVSIDRDGTVGIVCNRSEMGQGVRTSLAMVVADELEADWSRVKVIQAPGDEARYGNQDTDGSRSMRHWFEPMRRCGAAARQMLEQAAANQWKVPLGECRAEQNKVLHAPSGRSLSFGELAEAAAGLEVPARDKLLLKKPEQFRYIGKDVARAIDGADIVNGRAGFGFDARFDDMLYAVVARPPVYGGKLKRYDAAAALKVPGVVKVIEIEGRPIPSEFQPLGGVAVVAQNTWAAIKGREALVVEWDAGVNGGYDSVAYRKQLEEAARKPGKVVRDSGDAAALFAKGGDIVEAEYYLPHLAQAPMEPPVSTAWYKDGACEVWAPTQAPQVTRERIAERLKLPFDKVTVNVTLLGGGFGRKSKPDFVLEAAILAKAFPGRHLRVQWTREDDLHFSYFHTVSVERLQAVLGADGLPQAWLHRSVAPSITALFGPDSKHQGAFELGMGLTNLPFAIPNVRLENPEAPAHTRVGWFRSVSNIPHAFAIQSFVGELAAKAGQDPKDYLLKLLGPARRIDTAELGDSWNYGESPERYPLDVGRLRGVIEEAARQSGWGGELPRGRARGIAAHYSFVTYVAVVIEVEVKDDGALLVHKATIAADCGPQINPERIRSQLEGACVMGLGLAALGEISFKDGKVQQDNFHQYELARMPLAPKAVSVHLLKPDGDLPLGGVGEPGVPPIAPALCNAIFAATGKRIRELPI”, for which the “soluble on expression in E. coli” value was “not soluble”.

With “DDDLEVKEENGVWVLNDGNFDNFVADKDTVLLEFYAPWCGHCKQFAPEYEKIASTLKDNDPPIAVAKIDATSASMLASKFDVSGYPTIKILKKGQAVDYDGSRTQEEIVAKVREVSQPDWTPPPEVT”, the “soluble on expression in E. coli” value is “soluble”.
